Results as given in patent publication US20020064802.
Read-outs that look alike come from different tables or passages of the source.

Experiments:
[1] = test system: VEGF 3a/1 ZFP (NLS-ZFP-VP16-FLAG) (synthetic construct (SP1 backbone)); conditions: ChIP anti-FLAG, 293 cells, GAPDH-normalized
[2] = test system: VEGF 3a/1 ZFP (NLS-ZFP-VP16-FLAG) (synthetic construct (SP1 backbone)); test: cell_activity; conditions: 293 cells
[3] = test system: GATA 15.5 ZFP (NLS-ZFP-VP16-FLAG) (synthetic construct (SP1 backbone)); conditions: ChIP anti-FLAG, 293 cells, GAPDH-normalized; 1.9 in Table 7; control ZFP
[4] = test system: VEGF 3a/1 ZFP (NLS-ZFP-VP16-FLAG) (synthetic construct (SP1 backbone)); conditions: ChIP anti-FLAG, 293 cells, GAPDH-normalized; 170.4 in Table 7
[5] = test system: GATA 15.5 ZFP (NLS-ZFP-VP16-FLAG) (synthetic construct (SP1 backbone)); test: cell_activity; conditions: 293 cells
[6] = test system: GATA 15.5 ZFP (NLS-ZFP-VP16-FLAG) (synthetic construct (SP1 backbone)); conditions: ChIP anti-FLAG, 293 cells, GAPDH-normalized; designed for a different site

GGGGAGGATCGCGGAGGCTT (double strand) [endogenous VEGF-A gene target at +1 accessible region]
binding signal (fold enrichment vs NVF) [1]: 12.1 | activity (fold VEGF mRNA vs NVF) ([2]; VEGF protein 1.2, mRNA 1.0 and protein 1.5 in Table 9): 1.6

GGGGAGGATCGCGGAGGCTT (double strand)
binding signal (fold enrichment vs NVF) [3]: 0.88 | binding signal (fold enrichment vs NVF) [4]: 74.1 | activity (fold luciferase vs NVF) ([5]; integrated reporter, 1 in Table 8): 0.8 | activity (fold luciferase vs NVF) ([2]; integrated reporter, 10 in Table 8): 18

endogenous VEGF-A gene (GATA 15.5 bound site not mapped)
binding signal (fold enrichment vs NVF) [6]: 4.1 | activity (fold VEGF mRNA vs NVF) ([5]; VEGF protein 1.2, mRNA 2.0 and protein 2.0 in Table 9): 2
